Among the data in doi:10.1101/2025.09.26.678928 are reporter activity in S. cerevisiae biosensor assays, percent activity values, retold here.

In this assay the target is UhGpe1 (U. hordei).

“SrPit2 peptide corresponding to the U. maydis activating motif” had a reporter activity in S. cerevisiae biosensor assays, percent activity of 45%. WWFGFTGSL [Pit2 core peptide (…)] showed a reporter activity in S. cerevisiae biosensor assays, percent activity of 30%.
